Here are results for ten molecules from publication PMC8465637, “Three ParA Dimers Cooperatively Assemble on Type Ia Partition Promoters” (Genes, 2021).

Numbering of substitutions follows the chain as printed.

The stoichiometry N is the number of molecules, sites or subunits per partner or assembly.

The subject of data set [1] is ParB_F (SopB) (plasmid F). Kind of data set: EMSA. The conditions noted are these: apparent Kd; EMSA: 30 mM HEPES-KOH pH 7.5, 150 mM KCl, 3 mM MgCl2, 1 mM DTT, 10% glycerol, 37 C; SPR: 20 mM Hepes-KOH pH 7.4, 100 mM KCl, 10 mM MgCl2, 1 mM DTT, 24 C; MST: ….
Data set [2] concerns the target T1, ParA_F (SopA) (plasmid F, UniProt P62556 1-388).
T1 sequence: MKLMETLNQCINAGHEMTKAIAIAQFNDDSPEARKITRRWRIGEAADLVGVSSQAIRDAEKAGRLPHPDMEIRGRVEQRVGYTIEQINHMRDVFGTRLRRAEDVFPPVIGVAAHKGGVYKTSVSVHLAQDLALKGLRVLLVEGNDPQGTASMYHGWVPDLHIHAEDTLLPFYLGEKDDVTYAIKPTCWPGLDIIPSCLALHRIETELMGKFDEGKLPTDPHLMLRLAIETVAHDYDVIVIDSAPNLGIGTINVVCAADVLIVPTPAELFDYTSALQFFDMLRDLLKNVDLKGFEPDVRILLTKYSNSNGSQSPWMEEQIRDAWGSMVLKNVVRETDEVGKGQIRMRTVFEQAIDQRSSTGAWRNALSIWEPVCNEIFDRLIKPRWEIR
Kind of data set: fluorescence titration. The conditions noted are these: apparent Kd; EMSA: 30 mM HEPES-KOH pH 7.5, 150 mM KCl, 3 mM MgCl2, 1 mM DTT, 10% glycerol, 37 C; SPR: 20 mM Hepes-KOH pH 7.4, 100 mM KCl, 10 mM MgCl2, 1 mM DTT, 24 C; MST: ….

In data set [3] the target is T1, ParA_F (SopA). Description: SPR; 10 mM Mg2+, no nucleotide; 3 dimers per DNA; EMSA: 30 mM HEPES-KOH pH 7.5, 150 mM KCl, 3 mM MgCl2, 1 mM DTT, 10% glycerol, 37 C; SPR: 20 mM Hepes-KOH pH 7.4, 100 mM KCl, 10 mM MgCl2, 1 mM DTT, 24 C; MST: 10 mM Tris-HCl pH 8, 150 mM NaCl, 50 mM CaCl2, 0.05% Tween 20, 20 mg/mL BSA, 25 C. The conditions noted are these: protein: recombinant; tags: none (native); chain copies: 2; label: biotin. Background: Surface plasmon resonance follows binding to a sensor surface in real time, without labels.

The target in data set [4] is T1, ParA_F (SopA). Kind of data set: MST; no nucleotide; EMSA: 30 mM HEPES-KOH pH 7.5, 150 mM KCl, 3 mM MgCl2, 1 mM DTT, 10% glycerol, 37 C; SPR: 20 mM Hepes-KOH pH 7.4, 100 mM KCl, 10 mM MgCl2, 1 mM DTT, 24 C; MST: 10 mM Tris-HCl pH 8, 150 mM NaCl, 50 mM CaCl2, 0.05% Tween 20, 20 mg/mL BSA, 25 C. The following applies: protein: recombinant; tags: none (native); chain copies: 2; label: 5' Cy3.

Data set [5] has as its target T1, ParA_F (SopA). Description: EMSA; 3 mM Mg2+, apparent Kd; EMSA: 30 mM HEPES-KOH pH 7.5, 150 mM KCl, 3 mM MgCl2, 1 mM DTT, 10% glycerol, 37 C; SPR: 20 mM Hepes-KOH pH 7.4, 100 mM KCl, 10 mM MgCl2, 1 mM DTT, 24 C; MST: 10 mM Tris-HCl pH 8, 150 mM NaCl, 50 mM CaCl2, 0.05% Tween 20, 20 mg/mL BSA, 25 C. The following applies: protein: recombinant; tags: none (native); chain copies: 2; label: 5' Cy3. In general terms: In EMSA bound probe runs differently from free probe, usually more slowly.

The target of data set [6] is T1, ParA_F (SopA). Kind of data set: fluorescence titration; EMSA: 30 mM HEPES-KOH pH 7.5, 150 mM KCl, 3 mM MgCl2, 1 mM DTT, 10% glycerol, 37 C; SPR: 20 mM Hepes-KOH pH 7.4, 100 mM KCl, 10 mM MgCl2, 1 mM DTT, 24 C; MST: 10 mM Tris-HCl pH 8, 150 mM NaCl, 50 mM CaCl2, 0.05% Tween 20, 20 mg/mL BSA, 25 C. The conditions noted are these: protein: recombinant; tags: none (native); chain copies: 2; label: 5' Cy3.

Data set [7] has as its target T1, ParA_F (SopA). Kind of data set: EMSA; equimolar ParB_F; estimate close to the probe concentration; no supershift; EMSA: 30 mM HEPES-KOH pH 7.5, 150 mM KCl, 3 mM MgCl2, 1 mM DTT, 10% glycerol, 37 C; SPR: 20 mM Hepes-KOH pH 7.4, 100 mM KCl, 10 mM MgCl2, 1 mM DTT, 24 C; MST: 10 mM Tris-HCl pH 8, 150 mM NaCl, 50 mM CaCl2, 0.05% Tween 20, 20 mg/mL BSA, 25 C. The conditions noted are these: protein: recombinant; tags: none (native); chain copies: 2; label: 5' Cy3.

Data set [8] has as its target T1, ParA_F (SopA). Kind of data set: EMSA; 3 uM ParA_F; EMSA: 30 mM HEPES-KOH pH 7.5, 150 mM KCl, 3 mM MgCl2, 1 mM DTT, 10% glycerol, 37 C; SPR: 20 mM Hepes-KOH pH 7.4, 100 mM KCl, 10 mM MgCl2, 1 mM DTT, 24 C; MST: 10 mM Tris-HCl pH 8, 150 mM NaCl, 50 mM CaCl2, 0.05% Tween 20, 20 mg/mL BSA, 25 C. The following applies: protein: recombinant; tags: none (native); chain copies: 2; label: 5' Cy3.

Data set [9] concerns the target T1, ParA_F (SopA). Kind of data set: SPR; 1 uM ParA_F, no nucleotide; EMSA: 30 mM HEPES-KOH pH 7.5, 150 mM KCl, 3 mM MgCl2, 1 mM DTT, 10% glycerol, 37 C; SPR: 20 mM Hepes-KOH pH 7.4, 100 mM KCl, 10 mM MgCl2, 1 mM DTT, 24 C; MST: 10 mM Tris-HCl pH 8, 150 mM NaCl, 50 mM CaCl2, 0.05% Tween 20, 20 mg/mL BSA, 25 C. The conditions noted are these: protein: recombinant; tags: none (native); chain copies: 2; label: biotin.

Data set [10] concerns the target T1, ParA_F (SopA). Description: SPR; EMSA: 30 mM HEPES-KOH pH 7.5, 150 mM KCl, 3 mM MgCl2, 1 mM DTT, 10% glycerol, 37 C; SPR: 20 mM Hepes-KOH pH 7.4, 100 mM KCl, 10 mM MgCl2, 1 mM DTT, 24 C; MST: 10 mM Tris-HCl pH 8, 150 mM NaCl, 50 mM CaCl2, 0.05% Tween 20, 20 mg/mL BSA, 25 C. The conditions noted are these: protein: recombinant; tags: none (native); chain copies: 2; label: biotin.

Data set [11] concerns the molecule itself. Kind of data set: SEC; analytical gel filtration on a calibrated Superdex 75 10/300GL column; ParAF 4 µM in buffer E (50 mM bis-Tris pH 6, 400 mM NaCl, 0.5 mM DTT), with or without 1 mM ADP; one peak at 9.5 mL.
Data set [12] addresses T1, ParA_F (SopA). Description: fluorescence titration; apparent Kd; EMSA: 30 mM HEPES-KOH pH 7.5, 150 mM KCl, 3 mM MgCl2, 1 mM DTT, 10% glycerol, 37 C; SPR: 20 mM Hepes-KOH pH 7.4, 100 mM KCl, 10 mM MgCl2, 1 mM DTT, 24 C; MST: 10 mM Tris-HCl pH 8, 150 mM NaCl, 50 mM CaCl2, 0.05% Tween 20, 20 mg/mL BSA, 25 C. The conditions noted are these: protein: recombinant; tags: none (native); chain copies: 2; label: 5' Cy3.

Consider “120-bp Cy3 probe for ParB_F (non-specific)”, for which, in data set [1], the Kd was 1000 nM. Turning to 75-bp probe with motifs #1 and #3, the Kd with ParA_F (SopA) [2] is 1200 nM.

B1: PparAB_F 136-bp (dsDNA)
DNA 1: ATCTCCTTTTGTAGTGTTGCTCTTATTTTAAACAACTTTGCGGTTTTTTGATGACTTTGCGATTTTGTTGTTGCTTTGCAGTAAATTGCAAGATTTAATAAAAAAACGCAAAGCAATGATTAAAGGATGTTCAGAA
DNA 2: TTCTGAACATCCTTTAATCATTGCTTTGCGTTTTTTTATTAAATCTTGCAATTTACTGCAAAGCAACAACAAAATCGCAAAGTCATCAAAAAACCGCAAAGTTGTTTAAAATAAGAGCAACACTACAAAAGGAGAT
Regarding B1, in the data set with ParA_F (SopA) [3], the binding result is “binds”.

B2: PparAB_F 120-bp (motifs 122'34) (dsDNA)
DNA 1: GTAGTGTTGCTCTTATTTTAAACAACTTTGCGGTTTTTTGATGACTTTGCGATTTTGTTGTTGCTTTGCAGTAAATTGCAAGATTTAATAAAAAAACGCAAAGCAATGATTAAAGGATGT
DNA 2: ACATCCTTTAATCATTGCTTTGCGTTTTTTTATTAAATCTTGCAATTTACTGCAAAGCAACAACAAAATCGCAAAGTCATCAAAAAACCGCAAAGTTGTTTAAAATAAGAGCAACACTAC
B2: the Kd with ParA_F (SopA) [4] is 140 ± 23 nM; with ParA_F (SopA) [5] it was 85 ± 20 nM; in the data set with ParA_F (SopA) [6], 130 nM; with ParA_F (SopA) [7], about 10 nM.

B3: 120-bp IR2-2* (perfect IR in the middle) (dsDNA)
DNA 1: GTAGTGTTGCTCTTATTTTAAACAATCAGTAGGTTTTTTGATGACTTTGCGATTTTGTTGTTGTCAGTAAGTAAATTGCAAAGTTTAATAAAAAAACTCAGTACAATGATTAAAGGATGT
DNA 2: ACATCCTTTAATCATTGTACTGAGTTTTTTTATTAAACTTTGCAATTTACTTACTGACAACAACAAAATCGCAAAGTCATCAAAAAACCTACTGATTGTTTAAAATAAGAGCAACACTAC
On to B3, for which the binding result in the data set with ParA_F (SopA) [8] is listed as “no binding”.

B4: 120-bp IR2-2*4 (dsDNA)
DNA 1: B3 DNA 1 with T98G, G101A, T102A, A103G
DNA 2: B3 DNA 2 with T18C, A19T, C20T, A23C
As to B4, the binding result with ParA_F (SopA) [8] is “no binding”.

B5: nsDNA 136-bp (dsDNA)
DNA 1: CAGTGAATTGTAATACGACTCACTATAGGGCGAATTGGAGCTCCACCGCGGTGGCGGCCGCTCTAGAACTAGTGGATCCCCCGGGCTGCAGGAATTCGATATCAAGCTTATCGATACCGTCGACCTCGAGGGGGGG
DNA 2: CCCCCCCTCGAGGTCGACGGTATCGATAAGCTTGATATCGAATTCCTGCAGCCCGGGGGATCCACTAGTTCTAGAGCGGCCGCCACCGCGGTGGAGCTCCAATTCGCCCTATAGTGAGTCGTATTACAATTCACTG
As to B5, the binding result in the data set with ParA_F (SopA) [9] is “no binding”.

B6: PparAB_F 58-bp (IR3-4) (dsDNA)
DNA 1: TTGTTGTTGCTTTGCAGTAAATTGCAAGATTTAATAAAAAAACGCAAAGCAATGATTA
DNA 2: TAATCATTGCTTTGCGTTTTTTTATTAAATCTTGCAATTTACTGCAAAGCAACAACAA
Turning to B6, the binding result in the data set with ParA_F (SopA) [10] was “no binding”.

B7: ParAF (ParA of the Escherichia coli plasmid F partition system ParABSF) (natural protein, UniProt P62556 1-388, looked up)
chain: T1 sequence
notes: native protein; also called SopA; source: E. coli strain DLT812 derivative carrying pDAG127 (ParaBAD::parAF), purified (heparin, Superdex 200, mono-Q)
Consider B7, for which the “stoichiometry N” value in [11] came out at 2.

B8: 80-bp IR3-4 probe (dsDNA)
DNA 1: GGTTTTTTGATGAGTCTCTGATTTTGTTGTTGCTTTGCAGTAAATTCAGAGATTTAATAAAAAAACGCAAAGCAATGATT
DNA 2: AATCATTGCTTTGCGTTTTTTTATTAAATCTCTGAATTTACTGCAAAGCAACAACAAAATCAGAGACTCATCAAAAAACC
B8: the Kd with ParA_F (SopA) [12] turned out to be 500 ± 325 nM.
